# Laboratory results published in PMC6923591.
# Legend:
# [1] = biological target: Ptpn6 Y208N C-SH2 domain (recombinant C-terminal SH2 domain of Ptpn6/SHP-1 with Y208N); assay: ITC
# [2] = biological target: Ptpn6 wt C-SH2 domain (recombinant C-terminal SH2 domain of Ptpn6/SHP-1); assay: ITC
substance,measurement,setting,value
FcγR2b phosphopeptide,Kd,[1],10.4 µM
same,Kd,[2],20.1 µM
